Data published in PMC4764579 (2016).

Target: TRPV1 (Rattus norvegicus, UniProt O35433)
Test: electrophysiology, Hill fit

TRPV1, sequence (O35433 whole entry): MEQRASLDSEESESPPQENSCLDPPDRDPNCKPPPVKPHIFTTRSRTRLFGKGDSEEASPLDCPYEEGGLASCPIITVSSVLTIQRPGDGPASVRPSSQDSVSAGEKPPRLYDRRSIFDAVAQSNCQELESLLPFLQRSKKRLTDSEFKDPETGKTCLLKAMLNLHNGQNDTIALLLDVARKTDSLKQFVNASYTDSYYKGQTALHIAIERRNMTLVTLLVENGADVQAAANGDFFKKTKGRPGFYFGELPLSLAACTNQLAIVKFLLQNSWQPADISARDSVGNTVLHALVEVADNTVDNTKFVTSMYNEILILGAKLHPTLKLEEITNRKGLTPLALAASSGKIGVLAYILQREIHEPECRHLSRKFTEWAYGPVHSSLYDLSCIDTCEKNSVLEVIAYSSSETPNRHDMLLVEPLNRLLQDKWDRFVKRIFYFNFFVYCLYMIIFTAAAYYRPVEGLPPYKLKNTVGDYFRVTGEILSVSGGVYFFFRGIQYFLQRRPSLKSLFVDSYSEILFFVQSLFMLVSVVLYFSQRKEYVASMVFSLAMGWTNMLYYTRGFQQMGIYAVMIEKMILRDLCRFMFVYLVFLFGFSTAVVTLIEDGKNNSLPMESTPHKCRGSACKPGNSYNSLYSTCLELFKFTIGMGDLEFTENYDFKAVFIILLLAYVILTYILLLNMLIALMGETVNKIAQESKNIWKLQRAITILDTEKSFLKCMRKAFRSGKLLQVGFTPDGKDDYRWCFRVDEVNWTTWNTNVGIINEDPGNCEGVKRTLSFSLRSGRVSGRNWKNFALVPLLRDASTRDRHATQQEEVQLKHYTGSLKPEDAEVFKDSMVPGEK

## TNCAKEGEVCGWGSKCCHGLDCPLAFIPYC [double-knot toxin (DkTx) K2 knot]
  Kd: 8.5 µM
